Results taken from patent US20220356247A1 (NANJING IMMUNOPHAGE BIOTECH, published 2022).

These binders were tested against T1, human ROR1 (human, UniProt Q01973 30-403, limits assumed) (assay: affinity for human ROR1, method not stated).
T1 construct: also called receptor tyrosine kinase-like orphan receptor 1
T1 sequence (Q01973 30-403 limits assumed): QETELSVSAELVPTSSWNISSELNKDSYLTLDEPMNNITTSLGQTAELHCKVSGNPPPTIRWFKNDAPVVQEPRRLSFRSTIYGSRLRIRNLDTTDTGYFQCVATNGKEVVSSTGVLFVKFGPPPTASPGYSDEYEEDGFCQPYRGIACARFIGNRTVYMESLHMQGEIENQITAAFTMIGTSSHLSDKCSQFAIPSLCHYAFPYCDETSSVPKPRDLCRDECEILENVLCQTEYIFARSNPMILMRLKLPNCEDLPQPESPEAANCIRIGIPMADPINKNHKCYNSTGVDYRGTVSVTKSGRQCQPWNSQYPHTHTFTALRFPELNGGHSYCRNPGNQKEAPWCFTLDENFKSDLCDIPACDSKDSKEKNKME

Binder	Kd
anti-ROR1 antibody clone C3 (antibody, V domains shown, Fully human clone from a naive phage library) VH: QVQLQESGPGLVKPSETLSLTCTVSGGSISSYYWSWIRQLPGKGLEWIGYMHYSGSTSYNPSLKGRLTISVDTSTNQFSLKLGSVTAADTAVYYCARYYYHDSSGYYSYFDYWGQGTLVTVSS VL: EIVLTQSPGTLSLSPGERATLSCRASQSVSSYLAWYQQKAGQAPRLLIYDASNRASGIPARFSGSGSGTDFTLTISSLEPEDFAVYYCQQRSNWPPTFGGGTKVEIK	3.25 nM
anti-ROR1 antibody clone G3 (antibody, V domains shown, Fully human clone from a naive phage library) VH: QVQLQQWGAGLLKPSETLSLTCAVYGGSFSGYYWSWIRQPPGKGLEWIGEINHSGSTSYNPSLKSRVTISVDTSKNQFSLKLSSVTAADTAVYYCARGHSSGWYRRYFDLWGRGTLVTVSS VL: EIVLTQSPATLSLSPGERATLSCRASQSVSSYLAWYQQKPGQAPRLLIYDASNRATGIPAKFSGSGSGTDFTLTISSLEPEDFAVYYCQQRSNWPPTFGGGTKVEIK	4.48 nM
anti-ROR1 antibody clone G6 (antibody, V domains shown, Fully human clone from a naive phage library) VH: EVQLVESGGGVVQPGGSLRLSCAASGFTFDDYAMHWVRQAPGKGLEWVSLISGDGGSTYYADSVKGRFTISRDNAKNSLYLQMNSLRAEDTAVYYCARDNWNDVYYYYGMDVWGQGTTVTVSS VL: DIQLTQSPSSLSASIGDTVTISCQASRDISDYLNWYQHKPGKAPKLLIYDASNLATGVPSRFSGSGSGTDFTLTIKSLQPEDVATYFCQQDDLLPLTFGGGTKVDIK	43.7 nM
